The results in this text go back to paper PMC9961625, “Anti-Trypanosoma cruzi Properties of Sesquiterpene Lactones Isolated from Stevia spp.: In Vitro and In Silico Studies” (Pharmaceutics, 2023).

As usually defined, the Km is the concentration of substrate that gives half-maximal velocity.

In the data set the test system is Cc1cc(=O)oc2cc(NC(=O)[C@@H]3CCCN3C(=O)CNC(=O)OCc3ccccc3)ccc12. The data set can be described thus: purified protein.

With “prolyl oligopeptidase of 80 kDa (Tc80) (Trypanosoma cruzi)”, the Km is reported as 5.9 µM.
